Source: US10434088B2, “Methods related to administering immunosuppressants and therapeutic macromolecules at a reduced pharmacodynamically effective dose” (Selecta Biosciences, Inc., priority 2013, dated 2019)

B1: aggOVA: chicken ovalbumin induced using high sheer to form aggregates to increase its immunogenicity (protein, UniProt P01012 2-386, looked up)
Ovalbumin: GSIGAASMEFCFDVFKELKVHHANENIFYCPIAIMSALAMVYLGAKDSTRTQINKVVRFDKLPGFGDSIEAQCGTSVNVHSSLRDILNQITKPNDVYSFSLASRLYAEERYPILPEYLQCVKELYRGGLEPINFQTAADQARELINSWVESQTNGIIRNVLQPSSVDSQTAMVLVNAIVFKGLWEKAFKDEDTQAMPFRVTEQESKPVQMMYQIGLFRVASMASEKMKILELPFASGTMSMLVLLPDEVSGLEQLESIINFEKLTEWTSSNVMEERKIKVYLPRMKMEEKYNLTSVLMAMGITDVFSSSANLSGISSAESLKISQAVHAAHAEINEAGREVVGSAEAGVDAASVSEEFRADHPFLFCIKHIATNAVLFFGRCVSP
modifications: shear-induced aggregates
B2: pOVA: immunogenic form of particulate Ovalbumin (protein, UniProt P01012 2-386, looked up)
Ovalbumin: B1 Ovalbumin
modifications: particulate form
notes: immunogenic form of particulate Ovalbumin

Tests used:
[1] = system: anti-OVA antibody (Ab) response; assay: Example 2: anti-OVA antibody response to aggOVA; format: in vivo, C57BL/6 mice; conditions: 25 μg aggOVA i.v. d0, 14, 28 then boosts; nanocarriers i.v. (100 μg rapamycin) concomitantly d0, 14, 28 only; days 25, 40 and next 60 days; FIG. 3
[2] = system: anti-OVA IgG antibody response; assay: Example 9: anti-OVA IgG antibody titers; format: in vivo, C57BL/6; conditions: 2.5 μg pOVA i.v. weekly; 0.2 mg nanocarrier admixed days 0, 7, 14; FIG. 11
Protocol: The control group of C57BL/6 age-matched (5-6 weeks) female were injected i.v. in the tail vein with 2.5 μg of an immunogenic form of particulate Ovalbumin (pOVA) and 2 μg of Keyhole Limpet Hemocyanin (KLH) s.c. in the hind limb once a week for 49 days (d0, 7, 14, 20, 28, 35, 42, 49).

Molecule	anti-OVA antibody (IgG) response [1]	anti-OVA IgG antibody titers at day 54 [2]
B1	prominent anti-OVA antibody (Ab) response	
B2		robust immune response
